B1: Cyclin-dependent kinase 4 (Homo sapiens), P11802 (parent)
chain: MATSRYEPVAEIGVGAYGTVYKARDPHSGHFVALKSVRVPNGGGGGGGLPISTVREVALLRRLEAFEHPNVVRLMDVCATSRTDREIKVTLVFEHVDQDLRTYLDKAPPPGLPAETIKDLMRQFLRGLDFLHANCIVHRDLKPENILVTSGGTVKLADFGLARIYSYQMALTPVVVTLWYRAPEVLLQSTYATPVDMWSVGCIFAEMFRRKPLFCGNSEADQLGKIFDLIGLPPEDDWPRDVSLPRGAFPPRGPRPVQSVVPEMEESGAQLLLEMLTFNPHKRISAFRALQHSYLHKDEGNPE
partner: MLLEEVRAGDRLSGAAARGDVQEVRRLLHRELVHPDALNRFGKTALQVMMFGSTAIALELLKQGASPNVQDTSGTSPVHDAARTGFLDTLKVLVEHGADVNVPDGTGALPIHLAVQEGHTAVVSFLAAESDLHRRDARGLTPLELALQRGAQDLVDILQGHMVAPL
B2: Macrophage scavenger receptor types I and II (Homo sapiens), P21757 (parent)
chain: MEQWDHFHNQQEDTDSCSESVKFDARSMTALLPPNPKNSPSLQEKLKSFKAALIALYLLVFAVLIPLIGIVAAQLLKWETKNCSVSSTNANDITQSLTGKGNDSEEEMRFQEVFMEHMSNMEKRIQHILDMEANLMDTEHFQNFSMTTDQRFNDILLQLSTLFSSVQGHGNAIDEISKSLISLNTTLLDLQLNIENLNGKIQENTFKQQEEISKLEERVYNVSAEIMAMKEEQVHLEQEIKGEVKVLNNITNDLRLKDWEHSQTLRNITLIQGPPGPPGEKGDRGPTGESGPRGFPGPIGPPGLKGDRGAIGFPGSRGLPGYAGRPGNSGPKGQKGEKGSGNTLTPFTKVRLVGGSGPHEGRVEILHSGQWGTICDDRWEVRVGQVVCRSLGYPGVQAVHKAAHFGQGTGPIWLNEVFCFGRESSIEECKIRQWGTRACSHSEDAGVTCTL
partner: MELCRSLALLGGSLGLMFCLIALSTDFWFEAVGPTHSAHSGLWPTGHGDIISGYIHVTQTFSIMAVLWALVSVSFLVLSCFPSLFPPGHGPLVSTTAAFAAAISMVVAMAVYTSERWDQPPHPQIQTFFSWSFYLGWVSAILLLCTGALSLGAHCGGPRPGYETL
B3: Protein FAM9B (Homo sapiens), Q8IZU0 (parent)
chain: MAAWGKKHAGKDPVRDECEERNRFTETREEDVTDEHGEREPFAETDEHTGANTKKPEDTAEDLTAKRKRMKMDKTCSKTKNKSKHALRKKQLKRQKRDYIHSLKLLNVLEEYITDEQKEEEEEEGEEEELIRIFQEQQKKWQQYRSVRRERLKEMKLLRDQFVKALEDFEDLCDRVFSDEDSELDN
partner: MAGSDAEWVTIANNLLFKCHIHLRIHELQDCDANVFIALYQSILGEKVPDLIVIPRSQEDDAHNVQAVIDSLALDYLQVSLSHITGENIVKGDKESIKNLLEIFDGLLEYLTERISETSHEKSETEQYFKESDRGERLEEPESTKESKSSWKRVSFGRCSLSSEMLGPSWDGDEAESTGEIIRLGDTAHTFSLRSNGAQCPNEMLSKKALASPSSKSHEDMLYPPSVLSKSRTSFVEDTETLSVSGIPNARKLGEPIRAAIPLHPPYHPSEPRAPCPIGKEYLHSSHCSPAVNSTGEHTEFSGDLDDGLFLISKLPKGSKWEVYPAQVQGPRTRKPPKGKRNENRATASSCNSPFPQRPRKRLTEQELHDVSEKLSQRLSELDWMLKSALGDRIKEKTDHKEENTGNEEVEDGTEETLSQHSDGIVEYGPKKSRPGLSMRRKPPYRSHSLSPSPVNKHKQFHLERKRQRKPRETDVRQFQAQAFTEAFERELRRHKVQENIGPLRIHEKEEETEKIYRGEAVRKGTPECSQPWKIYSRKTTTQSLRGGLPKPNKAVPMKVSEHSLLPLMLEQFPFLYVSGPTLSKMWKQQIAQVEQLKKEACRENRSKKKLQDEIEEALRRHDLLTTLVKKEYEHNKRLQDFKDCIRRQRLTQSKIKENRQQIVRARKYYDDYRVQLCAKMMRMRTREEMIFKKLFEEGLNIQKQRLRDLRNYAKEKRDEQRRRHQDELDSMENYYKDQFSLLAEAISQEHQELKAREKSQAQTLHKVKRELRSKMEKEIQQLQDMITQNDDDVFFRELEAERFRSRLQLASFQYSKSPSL
B4: Isoform 1 of Segment polarity protein dishevelled homolog DVL-3 (Homo sapiens), Q92997-1 (parent)
chain: MGETKIIYHLDGQETPYLVKLPLPAERVTLADFKGVLQRPSYKFFFKSMDDDFGVVKEEISDDNAKLPCFNGRVVSWLVSAEGSHPDPAPFCADNPSELPPPMERTGGIGDSRPPSFHPHAGGGSQENLDNDTETDSLVSAQRERPRRRDGPEHATRLNGTAKGERRREPGGYDSSSTLMSSELETTSFFDSDEDDSTSRFSSSTEQSSASRLMRRHKRRRRKQKVSRIERSSSFSSITDSTMSLNIITVTLNMEKYNFLGISIVGQSNERGDGGIYIGSIMKGGAVAADGRIEPGDMLLQVNEINFENMSNDDAVRVLREIVHKPGPITLTVAKCWDPSPRGCFTLPRSEPIRPIDPAAWVSHTAAMTGTFPAYGMSPSLSTITSTSSSITSSIPDTERLDDFHLSIHSDMAAIVKAMASPESGLEVRDRMWLKITIPNAFIGSDVVDWLYHNVEGFTDRREARKYASNLLKAGFIRHTVNKITFSEQCYYIFGDLCGNMANLSLHDHDGSSGASDQDTLAPLPHPGAAPWPMAFPYQYPPPPHPYNPHPGFPELGYSYGGGSASSQHSEGSRSSGSNRSGSDRRKEKDPKAGDSKSGGSGSESDHTTRSSLRGPRERAPSERSGPAASEHSHRSHHSLASSLRSHHTHPSYGPPGVPPLYGPPMLMMPPPPAAMGPPGAPPGRDLASVPPELTASRQSFRMAMGNPSEFFVDVM
B5: U6 snRNA-associated Sm-like protein LSm7 (Homo sapiens), Q9UK45 (parent)
chain: MADKEKKKKESILDLSKYIDKTIRVKFQGGREASGILKGFDPLLNLVLDGTIEYMRDPDDQYKLTEDTRQLGLVVCRGTSVVLICPQDGMEAIPNPFIQQQDA
partner: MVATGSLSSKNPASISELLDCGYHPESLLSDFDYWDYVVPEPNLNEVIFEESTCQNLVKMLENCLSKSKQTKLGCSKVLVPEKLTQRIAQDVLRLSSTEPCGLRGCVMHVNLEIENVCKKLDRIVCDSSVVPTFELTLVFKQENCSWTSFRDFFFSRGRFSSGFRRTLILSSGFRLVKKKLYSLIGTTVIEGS

Variants of: B1
Conditions: with cdn2d_human CDKN2D

Row | Variant | effect of a mutation on the interaction
1 | MATSRYEPVAEIGVGAYGTVYKARDPHSGHFVALKSVRVPNGGGGGGGLPINTVREVALLRRLEAFEHPNVVRLMDVCATSRTDREIKVTLVFEHVDQDLRTYLDKAPPPGLPAETIKDLMRQFLRGLDFLHANCIVHRDLKPENILVTSGGTVKLADFGLARIYSYQMALTPVVVTLWYRAPEVLLQSTYATPVDMWSVGCIFAEMFRRKPLFCGNSEADQLGKIFDLIGLPPEDDWPRDVSLPRGAFPPRGPRPVQSVVPEMEESGAQLLLEMLTFNPHKRISAFRALQHSYLHKDEGNPE [S52N] | with no effect

Variants of: B2
Conditions: with nkg7_human NKG7, Q16617

Row | Variant | effect of a mutation on the interaction
2 | MEQWDHFHNQQEDTDSCSESVKFDARSMTALLPPNPKNSPSLQEKLKSFKAALIALYLLVFAVLIPLIGIVAAQLLKWETKNCSVSSTNANDITQSLTGKGNDSEEEMRFQEAFMEHMSNMEKRIQHILDMEANLMDTEHFQNFSMTTDQRFNDILLQLSTLFSSVQGHGNAIDEISKSLISLNTTLLDLQLNIENLNGKIQENTFKQQEEISKLEERVYNVSAEIMAMKEEQVHLEQEIKGEVKVLNNITNDLRLKDWEHSQTLRNITLIQGPPGPPGEKGDRGPTGESGPRGFPGPIGPPGLKGDRGAIGFPGSRGLPGYAGRPGNSGPKGQKGEKGSGNTLTPFTKVRLVGGSGPHEGRVEILHSGQWGTICDDRWEVRVGQVVCRSLGYPGVQAVHKAAHFGQGTGPIWLNEVFCFGRESSIEECKIRQWGTRACSHSEDAGVTCTL [V113A] | with no effect
3 | MEQWDHFHNQQEDTDSCSESVKFDARSMTALLPPNPKNSPSLQEKLKSFKAALIALYLLVFAVLIPLIGIVAAQLLKWETKNCSVSSTNANDITQSLTGKGNDSEEEMRFQEVFMEHMSNMEKRIQHILDMEANLMDTEHFQNFSMTTDQRFNDILLQLSTLFSSVQGHGNAIDEISKSLISLNTTLLDLQLNIENLNGKIQENTFKQQEEISKLEERVYNVSAEIMAMKEEQVHLEQEIKGEVKVLNNITNDLRLKDWEHSQTLRNITLIQGPPGPPGEKGDRGPTGESGPRGFPGPIGPPGLKGDRGAIGFPGSRGLPGYAGRPGNSGPKGQKGEKGSGNTLTLFTKVRLVGGSGPHEGRVEILHSGQWGTICDDRWEVRVGQVVCRSLGYPGVQAVHKAAHFGQGTGPIWLNEVFCFGRESSIEECKIRQWGTRACSHSEDAGVTCTL [P346L] | with no effect
4 | MEQWDHFHNQQEDTDSCSESVKFDARSMTALLPPNPKNSPSLQEKLKSFKAALIALYLLVFAVLIPLIGIVAAQLLKWETKNCSVSSTNANDITQSLTGKGNDSEEEMRFQEVFMEHMSNMEKRIQHILDMEANLMDTEHFQNFSMTTDQRFNDILLQLSTLFSSVQGHGNAIDEISKSLISLNTTLLDLQLNIENLNGKIQENTFKQQEEISKLEERVYNVSAEIMAMKEEQVHLEQEIKGEVKVLNNITNDLRLKDWEHSQTLRNITLIQGPAGPPGEKGDRGPTGESGPRGFPGPIGPPGLKGDRGAIGFPGSRGLPGYAGRPGNSGPKGQKGEKGSGNTLTPFTKVRLVGGSGPHEGRVEILHSGQWGTICDDRWEVRVGQVVCRSLGYPGVQAVHKAAHFGQGTGPIWLNEVFCFGRESSIEECKIRQWGTRACSHSEDAGVTCTL [P275A] | with no effect

Variants of: B3
Conditions: with cep95_human CEP95, Q96GE4

Row | Variant | effect of a mutation on the interaction
5 | R23H | with no effect

Variants of: B4
Conditions: with kat7_human KAT7, O95251
Chain of kat7_human KAT7, O95251 (O95251 whole entry): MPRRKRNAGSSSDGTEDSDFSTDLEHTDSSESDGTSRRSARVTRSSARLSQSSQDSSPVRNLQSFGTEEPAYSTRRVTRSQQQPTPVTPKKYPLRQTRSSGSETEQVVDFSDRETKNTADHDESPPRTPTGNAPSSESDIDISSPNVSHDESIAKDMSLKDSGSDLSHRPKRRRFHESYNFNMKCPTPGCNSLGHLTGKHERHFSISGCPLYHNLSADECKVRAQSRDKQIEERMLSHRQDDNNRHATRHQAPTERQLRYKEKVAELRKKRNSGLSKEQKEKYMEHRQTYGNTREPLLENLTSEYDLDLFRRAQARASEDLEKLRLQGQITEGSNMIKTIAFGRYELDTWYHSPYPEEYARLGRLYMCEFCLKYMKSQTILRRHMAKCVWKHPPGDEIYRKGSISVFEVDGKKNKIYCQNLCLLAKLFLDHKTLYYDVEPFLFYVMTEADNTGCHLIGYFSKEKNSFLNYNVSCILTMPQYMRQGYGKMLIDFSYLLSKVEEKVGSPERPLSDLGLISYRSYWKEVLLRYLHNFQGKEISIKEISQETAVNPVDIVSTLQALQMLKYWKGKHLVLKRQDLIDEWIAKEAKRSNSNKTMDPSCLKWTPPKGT

Row | Variant | effect of a mutation on the interaction
6 | R216T | with no effect

Variants of: B5
Conditions: with ddt4l_human DDIT4L

Row | Variant | effect of a mutation on the interaction
7 | MADKEKKKKESILDLSKYIDKTIRVKFQGGREASGILKGFDPLLNLVLDGTIEYMRDPDDQYKLTEDTRQLGLVVCRATSVVLICPQDGMEAIPNPFIQQQDA [G78A] | with no effect
